Measured values from patent US10704064B2, “Recombinant yeast producing 3-hydroxypropionic acid and method for producing 3-hydroxypropionic acid using the same” (SK Innovation Co., Ltd., priority 2014, dated 2020).

Legend:
[1] = tested on: MCR; experiment: MCR enzyme assay from yeast cell lysates; type: biochemical; conditions: NADPH as a cofactor
Protocol: The MCR enzyme activity was measured according to the method described by Chen et al. (2014, Metab. Eng. 22:104-109) with slight modifications. The method is based on monitoring the oxidation of NAD(P)H at 340 nm.
Cells were collected and washed with cold wash buffer containing 20 mM Tris-HCl (pH 7.5), 20 mM NaN3 and then resuspended in 1 mL of breaking buffer containing 50 mM HEPES (pH 7.5), 150 mM KCl, 1 mM DTT, 1 mM EDTA, 0.5% Triton X-100 and 1×EDTA free protease inhibitor cocktail (Roche). The cells were lysed with glass beads in a Precellys 24 homogenizer at 5500 rpm for 3×40 seconds and kept on ice between rounds. Lysates were centrifuged at 16 000 g for 20 min at 4° C. and supernatants were collected. The total protein concentration was determined using the Bradford method.
The MCR assay mixture contained 50 mM Tris-HCl buffer (pH 8.0), 5 mM MgCl2 and 0.3 mM NADPH or NADH. After adding 20 μL of cell lysate into a total reaction volume of 200 μL, the reaction was pre-incubated for five minutes at 30° C. after which the reaction was started by addition of 0.15 mM malonyl-CoA. The assay was monitored at 340 nm with a Thermo Konelab 20XT analyser.
The eight full-length Chloroflexus MCR homologues were truncated into their two functional domains and the MCR-specific domains were assayed for enzyme activity in yeast along with the six archaeal MCRs. […]

[2] = tested on: MCR; experiment: archaeal MCR activity assay in E. coli lysates (microtitre plate); type: biochemical; conditions: E. coli cell lysate, NADPH or NADH
Protocol: (§1) pBAT T7 promoter based expression constructs were made for four different archaeal MCRs, Metallosphaera sedula (MCRms), Sulfolobus tokodai (MCRst), Candidatus caldiarchaeum (MCRcc), and Sulfolobales archaeon (MCRsa1).
Their activity was analyzed using the following assay conditions: 0.4 mM NAD(P)H; 0.15 mM Malonyl-CoA; Tris-HCl pH 7; 2 mM MgCl2. Assays on 20 times diluted lysates were performed in microtitre plate (MTP) format at RT. The oxidation of NADPHT or NADHT at A^365 in time was followed. […] However, the MCR activities were smaller than that measured for the tagged MCRca.

[3] = SDS-PAGE expression levels of MCR constructs in E. coli lysate
Source text: as §1

B1: MCRsa1: archaeal malonyl-CoA reductase of Sulfolobales archaeon Acd1, WP_020198954.1 (protein)
chain: MRRTLKAAILGATGLVGIEYVRMLSQHPYIKPAYLAGKGSVGKAYSEVVRWQTVGQVPKEVADMPVLPTDVNEIKKAGVDIVFSPLPQGAAGPVEEEFAKAGFPVISNSPDHRFDPDVPLMIPEVNGHTASLIDEQKKRRDWSGFIVTTPLCTAQGIAIPLAPIYRDFRVDSVFITTMQSLSGEGYPGVASLDVVDNIKVLGDAYDAKTVKEVTRILSEVKRNVPGTMDELTLSATTHRIATIHGHYEVMYVTFKEDVKVEKVKETLANFKGEPQDMKLPTAPSRPILITELDNRPQPYFDRWAGDVPGMSVVVGRLKQVNNRTVRLVSLIHNTVRGAAGGGILVAEYLIEKGYIPK
modifications: Sulfolobales archaeon
- MCR enzyme activity compared to the wild-type strain [1]: higher than the wild-type strain
- MCR activity [2]: showed the highest MCR activity
- expression level [3]: highest expression levels
